These results are taken from publication PMC5673489 (Cell, 2017).

What is called Kd is the free concentration of one partner at which half of the binding sites on the other are occupied at equilibrium, for simple one-to-one binding. Read a high Kd as a looser complex.

Test [1] concerns the target FIT-1 bispecific antibody (Fabs-in-tandem-Ig, ZKA190 outer Fab, ZKA185 inner Fab, IgG1 LALA) (human). The test can be described thus: SPR.
The target of test [2] is T1, recombinant DIII of ZIKV E protein (Brazil 2015 strain SPH2015) (Zika virus, Brazil 2015 strain SPH2015, strain).
T1 chain: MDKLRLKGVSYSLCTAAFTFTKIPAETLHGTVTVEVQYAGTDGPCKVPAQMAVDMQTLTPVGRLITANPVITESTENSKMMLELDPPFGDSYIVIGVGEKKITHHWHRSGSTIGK
The test can be described thus: SPR. In general terms: SPR reads the build-up and loss of mass on a sensor chip optically.

In test [3] the target is T1, recombinant DIII of ZIKV E protein …. As to the kind of experiment: NMR titration.

Take “recombinant E protein from ZIKV (natural protein)”: the Kd in test [1] was less than 1 pM.

B1: ZKA190 IgG (antibody, V domains shown)
VH: QVQLVESGGGVVQPGRSLRLSCAASGFTFSKYGMHWVRQAPGKGLEWVAVISYEGSNKYYADSVKGRFTISRDNSKNTLYLQMNSLRAEDTAVYYCAKSGTQYYDTTGYEYRGLEYFGYWGQGTLVTVS
VL: EIVLTQSPGTLSLSPGERATLSCRASQSVSSSYLAWYQQKRGQAPRLLIYDASSRATGIPDRFSGSGSGTDFTLTISRLEPEDFAVYYCQQYGRSRWTFGQGTKVEIK
For the molecule B1, in test [2], the binding result is reported as “binds”.

B2: ZKA190 Fab (Fab, V domains shown)
VH: B1 VH
VL: B1 VL
In the case of B2, the binding result in test [3] is given as “binds”.
